# Key:
# TLR2 = target: T1, TLR2 (Homo sapiens, UniProt O60603); experiment: Pam3CysK4-induced TNFα in THP-1 cells, ELISA; type: cell-based; details: peptide 1, 5 or 10 μM
# T1 construct: endogenous in cells; host or cells: PMA-differentiated THP-1
# Description: FIGS. 9A and B are bar charts showing the effect of A464 on Pam3CysK4-induced TNFα in human THP-1 cells. Cells were seeded in 96 well plates (3×10^5 cells/ml) and differentiated with 200 nM PMA for 24 hours before treatment. A464 (SEQ ID NO. 20) was added to the cells at a concentration of 1, 5 or 10 μM 1 hour before stimulating with either 100 ng/ml (A) or 10 ng/ml Pam3CysK4 (B). Supernatants were collected 24 hours after stimulation and assayed for TNFα by ELISA. Cells from (B) were also assayed for viability by the MTT assay (C). No peptides were added to the control wells (black bars). Data is representative of at least three experiments each performed in triplicate and is expressed as mean±s.d;
# Cytokine and chemokine production from cells or mouse serum was measured by ELISA using Duoset kits from R&D systems, according to the manufacturer's instructions.
# In order to determine whether A464 (SEQ ID No. 20) was specific for TLR4, other TLR pathways were next assayed for sensitivity to A464 (SEQ ID No. 20). A scrambled version of A464 (SEQ ID No. 20) peptide was designed to use as a further control peptide, and this had the sequence: […] (ConA464, SEQ ID No. 32). The A464R (SEQ ID No. 20) and ConA464 (SEQ ID No. 32) peptides were assayed for inhibition of TLR2 signalling in THP-1 cells. […]
# p38 MAPK = experiment: LPS-induced phospho-p38 MAPK in RAW264.7 cells, immunoblot; type: cell-based, murine; details: peptide 5 μM, 10 ng/ml LPS 5, 30 or 60 min
# Description: FIGS. 28A and B are immunoblots showing the effect of A464 on LPS-induced appearance of phospho-p38 MAPK in murine RAW264.7. Cells were set up as for FIG. 24 above and 5 μM A467 (SEQ ID NO. 23) or A464 (SEQ ID NO. 20) were added to the wells 1 hour before stimulation. Cells were stimulated with 10 ng/ml LPS for a period of 5, 30 or 60 min, then harvested and lysed. Proteins were resolved by SDS-PAGE, and transferred membranes immunoblotted for phospho-p38 (A) or total p38 (B). The blots shown are representative of two experiments;
# RAW264.7 cells were seeded at a density of 1×10^5 cells/ml in 6 well plates. After treatment with peptides and agonists, as described above in relation to the Figs, the medium was removed and the cells were washed once with PBS before scraping them in 100 μl lysis buffer (100 mM NaCl, 50 mM HEPES (pH 7.5), 1 mM EDTA, 0.5% NP-40, 10% Glycerol) and incubating them on ice for 40 min. Samples were spun at 15,000×g for 10min and supernatants collected and stored at −20° C. […] The protein concentration was determined by monitoring the change in the solution absorbance at 280 nm using a spectrophotometer compared to protein standards. […] Thereafter, the membranes were washed, incubated in appropriate secondary antibody and then developed using standard enhanced chemi-luminescence (ECL) reagents. […]
# T1 sequence (O60603 21-784): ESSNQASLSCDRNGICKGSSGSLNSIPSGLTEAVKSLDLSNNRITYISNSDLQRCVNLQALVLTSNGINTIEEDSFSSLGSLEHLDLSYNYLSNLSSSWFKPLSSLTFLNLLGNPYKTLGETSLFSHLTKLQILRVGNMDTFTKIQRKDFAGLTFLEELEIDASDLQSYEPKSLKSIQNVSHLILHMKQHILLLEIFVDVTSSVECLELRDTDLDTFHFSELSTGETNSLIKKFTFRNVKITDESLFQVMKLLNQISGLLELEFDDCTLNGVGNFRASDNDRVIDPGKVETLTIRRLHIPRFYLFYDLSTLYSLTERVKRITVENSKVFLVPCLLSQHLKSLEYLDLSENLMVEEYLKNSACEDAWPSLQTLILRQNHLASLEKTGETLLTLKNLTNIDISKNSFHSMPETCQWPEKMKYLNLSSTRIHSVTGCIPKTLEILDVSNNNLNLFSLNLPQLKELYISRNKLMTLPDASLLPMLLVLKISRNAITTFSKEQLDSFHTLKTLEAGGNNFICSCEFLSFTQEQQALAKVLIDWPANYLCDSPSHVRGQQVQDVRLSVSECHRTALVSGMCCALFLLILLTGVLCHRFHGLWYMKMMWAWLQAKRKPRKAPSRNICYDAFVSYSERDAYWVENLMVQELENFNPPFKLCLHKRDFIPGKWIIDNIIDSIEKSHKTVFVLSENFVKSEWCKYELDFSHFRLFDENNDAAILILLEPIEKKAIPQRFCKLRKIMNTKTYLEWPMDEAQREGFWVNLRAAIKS
# T1 sequence (Q15399 25-786 partner): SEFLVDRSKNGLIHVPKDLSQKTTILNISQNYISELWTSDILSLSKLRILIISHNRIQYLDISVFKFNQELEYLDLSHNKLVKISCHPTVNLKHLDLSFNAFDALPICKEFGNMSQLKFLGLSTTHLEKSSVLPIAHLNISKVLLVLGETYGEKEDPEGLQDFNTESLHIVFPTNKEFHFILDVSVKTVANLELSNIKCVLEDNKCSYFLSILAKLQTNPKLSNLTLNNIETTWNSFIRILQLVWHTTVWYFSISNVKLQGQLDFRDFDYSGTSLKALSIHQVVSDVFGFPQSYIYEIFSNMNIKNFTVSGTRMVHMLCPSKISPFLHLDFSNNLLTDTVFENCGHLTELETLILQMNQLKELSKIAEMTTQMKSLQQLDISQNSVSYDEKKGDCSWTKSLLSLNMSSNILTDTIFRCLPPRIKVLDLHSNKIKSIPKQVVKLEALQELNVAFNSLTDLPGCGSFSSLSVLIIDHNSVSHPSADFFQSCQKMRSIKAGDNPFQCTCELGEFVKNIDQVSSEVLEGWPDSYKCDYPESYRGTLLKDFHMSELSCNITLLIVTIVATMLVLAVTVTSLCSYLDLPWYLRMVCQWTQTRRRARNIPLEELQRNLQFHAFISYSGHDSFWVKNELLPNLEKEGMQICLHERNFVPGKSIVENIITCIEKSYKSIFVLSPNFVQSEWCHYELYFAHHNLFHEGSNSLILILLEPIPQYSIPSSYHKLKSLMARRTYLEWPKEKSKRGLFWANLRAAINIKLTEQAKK
sequence,measurement,setting,value
KYSFKLILAEYRRRRRRRRR [Peptide A464],inhibition of Pam3CysK4-induced hTNFα secretion,"TLR2; 10 ng/ml Pam3CysK4, 24 h",slightly heightened
same,inhibition of Pam3CysK4-induced hTNFα secretion,"TLR2; 100 ng/ml Pam3CysK4, 24 h",only very minor inhibitory effects
same,inhibition of LPS-induced p38 phosphorylation,p38 MAPK,very potent inhibition of LPS-induced p38 phosphorylation at all the time points

# Reference: US8722052B2, “Vaccinia virus protein A46 peptide and use thereof” (priority 2008, dated 2014)
